Positions count from the first letter of the chain named.
B1: LptC of E. coli (in purified LptB2CFG) (natural protein, UniProt P0ADV9 1-191, looked up)
chain: MSKARRWVIIVLSLAVLVMIGINMAEKDDTAQVVVNNNDPTYKSEHTDTLVYNPEGALSYRLIAQHVEYYSDQAVSWFTQPVLTTFDKDKIPTWSVKADKAKLTNDRMLYLYGHVEVNALVPDSQLRRITTDNAQINLVTQDVTSEDLVTLYGTTFNSSGLKMRGNLRSKNAELIEKVRTSYEIQNKQTQP
notes: LptC, E. coli, inner membrane protein of the LptB2CFG complex; The construct of LptC is not described
B2: LptB of E. coli (in purified LptB2CFG) (natural protein, UniProt P0A9V1 1-241, looked up)
chain: MATLTAKNLAKAYKGRRVVEDVSLTVNSGEIVGLLGPNGAGKTTTFYMVVGIVPRDAGNIIIDDDDISLLPLHARARRGIGYLPQEASIFRRLSVYDNLMAVLQIRDDLSAEQREDRANELMEEFHIEHLRDSMGQSLSGGERRRVEIARALAANPKFILLDEPFAGVDPISVIDIKRIIEHLRDSGLGVLITDHNVRETLAVCERAYIVSQGHLIAHGTPTEILQDEHVKRVYLGEDFRL
notes: in the K. pneumoniae construct and in the E. coli pTRC99a-Kan LptBFG plasmid it is an 8xHis at the C terminus of LptB

Key:
Assay in all cases: SEC; co-expressed E. coli LptB2CFG complexes (wild type and mutants) purified as the K. pneumoniae complex; HiLoad 16/600 Superdex 200 pg, 20 mM Tris-Cl pH 7.8, 150 mM NaCl, 5% glycerol, 0.05% DDM
Details in all cases: both partners purified
[1] = target: B2
[2] = target: T1, LptF of E. coli (in purified wild-type LptB2CFG) (E. coli, UniProt P0AF98 1-366)
T1 construct: LptF, E. coli, transmembrane subunit of the LptB2CFG complex
T1 sequence (looked up): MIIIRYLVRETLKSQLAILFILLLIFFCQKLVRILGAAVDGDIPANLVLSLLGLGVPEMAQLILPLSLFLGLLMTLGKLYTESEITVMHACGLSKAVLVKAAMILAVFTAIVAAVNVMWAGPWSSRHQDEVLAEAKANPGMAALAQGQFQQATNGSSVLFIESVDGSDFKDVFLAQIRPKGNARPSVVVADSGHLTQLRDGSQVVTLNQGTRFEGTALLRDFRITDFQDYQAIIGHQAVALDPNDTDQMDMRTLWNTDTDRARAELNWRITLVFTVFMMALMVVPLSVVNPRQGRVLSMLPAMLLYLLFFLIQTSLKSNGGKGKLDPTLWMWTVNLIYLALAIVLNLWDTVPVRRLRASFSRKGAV

[3] = target: T2, LptG of E. coli (in purified wild-type LptB2CFG) (E. coli, UniProt P0ADC6 1-360)
T2 construct: LptG, E. coli, transmembrane subunit of the LptB2CFG complex
T2 sequence (looked up): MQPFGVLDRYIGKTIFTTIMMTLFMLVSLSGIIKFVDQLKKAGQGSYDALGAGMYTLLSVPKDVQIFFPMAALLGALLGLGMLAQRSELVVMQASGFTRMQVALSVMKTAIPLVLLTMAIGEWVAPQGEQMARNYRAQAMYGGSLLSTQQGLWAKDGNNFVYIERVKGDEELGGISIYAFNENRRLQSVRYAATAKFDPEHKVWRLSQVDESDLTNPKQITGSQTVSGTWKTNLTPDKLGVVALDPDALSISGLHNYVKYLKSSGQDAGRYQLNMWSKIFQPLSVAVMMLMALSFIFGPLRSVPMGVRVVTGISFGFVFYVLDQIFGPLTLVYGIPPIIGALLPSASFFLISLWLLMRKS

[4] = target: T3, LptF F26D/L62D of E. coli (in purified mutant LptB2CFG) (E. coli, UniProt P0AF98 1-366, F26D | L62D)
T3 construct: LptF, E. coli, double mutant F26D/L62D
T3 sequence (looked up): T1 sequence (looked up) with F26D, L62D

[5] = target: T4, LptG K34E/R136E of E. coli (in purified mutant LptB2CFG) (E. coli, UniProt P0ADC6 1-360, K34E | R136E)
T4 construct: LptG, E. coli, double mutant K34E/R136E
T4 sequence (looked up): T2 sequence (looked up) with K34E, R136E

Row | Binder | binding result [1] | binding result [2] | binding result [3] | binding result [4] | binding result [5]
1 | B1 | binds |  |  |  | 
2 | B2 |  | binds | binds | binds | binds

Source: paper PMC5548808, “Structural and functional insights into the lipopolysaccharide ABC transporter LptB2FG” (Nature Communications, 2017)
